According to the domain aggregation screens of Martell et al. (2025):

Assay: soluble fraction after stress (log2 fold change); higher = more stays soluble; pooled small domains, quantitative proteomics
Settings: stress: pH 4
How it was run: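 With high-throughput quantitative proteomics, pooled custom libraries of small protein domains were measured after pH 4 stress. Each domain's soluble amount after the stress gives a fold change taken as aggregation propensity. Higher log2 values mean more of the domain stayed soluble.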

Sequence	soluble fraction (log2)
HMGNYRVIKWGMQGDDVKLMQQMLINRGYVLSATGKYASRTLKAIMAFQEANGLKADGIVGKRTWNKLL	-0.134
HMGPAYEKIVANGQTFYRYNVKKGEGLMAVSRTFNVSVNDILKYNPSAASGLKDGQELLIPVIDDA	-0.29
HMGPESKLTDAIKDYIYALYENLKGKSKFRNTIIEEVKKLYGVDISRESIRRVVNQKTDAETTENDDDEKA	0.197
HMGPKALLKIPGLQEVDAELLFKEGYKSISAVASADPEMLKAIPGVDEQKVTEWVTGAEQILSQQVNKGA	0.25
HMGPKPVDMSPIPEGQRNQVLHDWMYGRAANHPENWGQIRSDALERGLKSGLKADEIHAITGSVARALGLE	0.0794
HMGPNPLTEREQEILQLARTGEPVARLAKRLFLSPGTVRNHLSSAIGKLGAANRVEAAQFATERGW	-0.0238
HMGPSLDAVREQIRDLIAEEDKSAPYSDLSLVAELEKRGIHISRRTIAKYRGEMGIPNSDQRRYF	0.325
HMGPSSIVVYVSGAVKTPGVYTLAPGSRVDDAVRAAGGLSERAESAGTNLAAQLSDGEHVHVAAAGE	-0.159
HMGPTGGLTPHIAIADKRASEAIEFYKQAFGAVEQVRMPAEDGVRLMHAHLLVNGSSLMMHDDFPEYSGQ	0.0087
HMGPTLSPAEKRVFEVIPYDAILQDMVIRAAELPPGEVLAALTTLELKGLIKRLPGNLVMRRAR	-0.267
HMGPVALGVTDGATYFSSVTITFRRGTAVLDGEPIASGHTVYKSGAHSLTLTAGGKTRTIAFTMDT	0.139
HMGPVPLASAADMEKFYSHLQQVLDEVDFKDRTGSGHLMARLRRLFQRTVLDQNEINILRGILMAVQGRR	-0.959
HMGQGAASAPLRELGVDPVSEKQMVLKDGRFGPYVTDGETNASLRKGDEVETITDERASELLQMRRDAGPS	0.0347
HMGQISDDGALKKLASEVLAANPQALADWKAGKQQAVSFLVGQAMKASKGRGDAALLGELIRAALD	0.0477
HMGQKASEVEKIFVELQQQIIRGDLPPGYRLVESQIAAQFGVSRTPARLAIERLATAGLVAHETNRGATVH	-0.36
HMGQKNEDESLAKFYVHKKGNQYGPYSLIQIREYLKNNSFSLDDLASWDGQSWKKISQIPNLN	0.182
HMGQLTDKQILLFSGKLAYEPTFASKYSKAGESYDDFIIRISGDLTDPKKIKEYSPYLKELGF	-0.954
HMGQNYTIVKGDSLWKIAQKQYGDGSQWKKIYDANKDAIESAAKKYGKKSSDSGKWIYPGVSLII	0.134
HMGQVEVPDVVGMTQERAITTLTEAKLVAQIQLTPADVAKGLVAAQSPRAGLKIGEGSFVTIEVSTGPVI	0.229
HMGQVFEGTFNRKANGKNSVTPAEGGEPVFIAERNSLHAMNGDLVKVSLLAKKKHQPREAQVIEILKRSD	0.338
HMGQVPPLTRRETEIARLVSRGLSNKEIASTLVISPRTAEGHVEHILDKLGFSSRTQIATWLNEQTRNGK	0.313
HMGRDWKTDLLNLATARGWGDVSYEVTGEGPDHARVYTAVAIVANQKTGTGVGPSKKEAERLAAEQAYRML	0.132
HMGRELSDLELSLLRILDDKIPLLIDEAADRLQLPVAQVLSAVTIMEIDGLIRREGMRKYLRTVEVEETK	-1.3

Sequence	soluble fraction (log2)
HMGRFAETVEHIVAAQLARRQGIPTMEQFASFFNVSRATFQRRLGEEGETLEQIKQRVRLRLALELLHP	-0.441
HMGRGAAKGPLKELGLDPVTGRPLVVKDGKFGMYVTDGETNAGLRRGDLVEQLTLDRGMELLAERRARADQ	-0.258
HMGRKIDDPSSMTGAEKAAVILLALGDEQRQLWEMMDDEEIRVVSQAMVNLGNVTSGAVEKLIMEFVGSMS	-0.425
HMGRKPATTIPLQVRNAVLDLYRTKYYGANFQHYTELLHEHEGIRISTSSVAKILEAEYILSPK	-0.838
HMGRKPVSPEIVERVLQLAKSNPDWGYEHIAGTMRYLGYNVSATTIRHILEANGIVPDPERRL	-0.543
HMGRMSLDEAKAVILPIGEHKGHTMGEVLAIKPGLIDFYASQKFNSGKYPYLKEAAQVILENQG	0.173
HMGRRERKKLQSRRAIIEAAVTEFKEKGFREASVADIMTRADLGLGTFYNYFQSKEDILMSLLS	-0.0713
HMGRRRAAPQEPLRQFPASPVTGQPIKLLLGQYGPYVTDGTTNASLPKGSSPDELTFEQATQLLAERALRG	0.0322
HMGRSARVQQAVHQAVRALLEENDGERSALSVPLVAERAGVNSSTIYRRWGDLPRLLAAVASN	0.0284
HMGRTVKGVNFVGLRDAGDPVDLAEIYSKEGADELVFLDITATHEKRKTLLDLVTRVAERINIPFTVGGGI	-0.331
HMGSALLEAGADDAGQRLDQWLAAKLGPSISRSRVQALIKQGAVLVGGKPAGEAKRKLVAGDVVSVALPEP	0.133
HMGSDLVAWAQTRIGRHPEEAADVIAALIDRHGEARVRAASRSLLARKFAHASDLRTAIDAAIG	0.0531
HMGSEEMLGALGVVERATDDGDWWIAVHGEHWRARSAQALVPGDRVRVARIDGLTLTVTPIA	0.0708
HMGSEGVKVEDTIGMSEAEATATLGKSGFVVNKTESHDPYIKAGNVITQSPAAGSKAPKGTTVTLTISLGP	0.423
HMGSEISYSEFLNRVEQGQVAAVRLDGEQIFITGPTGEAYQTIQPRNTDVLPDLREAGVEIQAAPQ	-0.675
HMGSEYPSNPLASRWAKGVRLYHDEWGYGVIQAARGSEPDDYVITVRFESGAEKSFLPKFQAHSLMIVKD	-0.974
HMGSGQVTLPDLEGKSMKEVARILSQLGLHLSPDGHGLAFKQSPAAGTRVPVGSTIKVSFQPL	-0.208
HMGSKKAIPYVSGMSETEAQNELEEAGFKVTSSFQYDDSVESGKVISTTPEAGTKAEKGSTVTMLVSQGSN	0.0696
HMGSLVQTAMQAVTKHIHDNAMRVGDTLPGEGHFAETLGVSRAVMREAFGALAALKLIDVGNGRKPRVGR	0.091
HMGSNATIKYAIKGDESLVQVAQKFNVTVSELRSWNNISAFENAKTGQELVINVPASKYETYFALANT	-0.0194
HMGSNLSFDLSQIIASRYQEKAAELGLTAPSLARTDLSPQEQATAEVVARAIIADYYDQRVAPFNDLIPQ	-1.54
HMGSNRPLALGDVVRIEGSKTLGTILELNAKDAVVALGALKTTLPLSRIHHASSQESQRLKRQATQAPLR	0.0932
HMGSPKLVIKNGQVDYQVLKKEKLDLLELTSLLRGQNTFSIREIEYAIIEPNGVITVIKKPEYQSVVKGDL	-1

Sequence	soluble fraction (log2)
HMGSPVTAVMNRVLNETERQIVTLHVISGFKHREIAELLEKPVGTVLWTYNNALGKMRKAMQRE	-0.603
HMGSRRFGDSNHAAKLTEEQVVEIRELAAAGATTKFLAEMVGMHPNYVGLILRGLSWPEAGGPLRVA	0.0889
HMGSVDMVYGDHKINSEHMDLSFKNQTAVLYDKVNYKSSLSMLSADKILVNFLNKYTKIEMNDENNNILIQ	-0.128
HMGSVNDNVQKLTSQIGETTETGDTITPEDVELYKKMVDPLSTMAQKLEAAEILKLKGIIGSNGIIV	-0.0476
HMGSWEDALKNWVDSALASGQKGILEQAVPKFERIMIETALTHTAGRRRDASLLLGWGRNTLTRKIKELGI	0.0465
HMGTAESIRLFLSSGLIKGVGEALAGRIVDTFGTDTFDIIENHPELLAGVKGISHRLAMSIYESFSQHIGV	-0.951
HMGTDIGADKAAQTALADAGLSSSQVTGLRTKQDWDDGQLRYEVEFRAGGVEYDYELAADGTILKADRDT	0.254
HMGTEITEQRAKEIALENAKVAESDVTAMRVKKEMDDGVWRYDVEFYVQNKEYDYEINAMDGTILSVDYD	0.0797
HMGTESFGARIRKIREARDWTPAALAEATGQTPEFVARVERDEVAPPVAFLLRLAAALGVDPSTF	-0.672
HMGTGADKNSWTIGDKVKHRKWGTGTVVKVTGAGEDAELDIAFKSEGIKRLLAAFAPIEKVK	-0.0706
HMGTHDAGTRFFDNLDSLLQNRDATRADVLAVYLLAVSLGFRGKHRSVSSAPQIAHYRNQAYVTLFQ	-0.386
HMGTIEQAFKGKAPGSAHLYDRARAVLAGGVTHDTRIHAPFPIMVQRALGARKWDVDGNEYIDY	-0.259
HMGTMKGFVDGSSVHLRSGPSLSESIRAKVVKGQTLYITERRGDWYRATVHGGGEGWIHTSLVKLAG	0.261
HMGTPLYLLLAAEVRDRIATEQLAPHTAVPSERELAELHGVSRMTARQALALLESEGLVYRNPPRGTFVAE	-0.922
HMGTQIKSPMPGTILDVRVNVGDTVKEGDILMILEAMKMENEILAPVSGKVAAIQVSKGTAVNSGDLLAVL	-0.404
HMGTRHPLPYAYARANTVLLEDDGDRLVLWAPENVSLTALGEVLRRFDVDALERESSSTLANRIAVAYAG	-0.896
HMGTTLTKIPGIGENRARLLLRHFGSLRAVREADADALAAVKGMTRPAAEAIVRYFEQQDAEGRRD	0.336
HMGTTTPPATRKGKVTSSFLNVRSGPSTANAKVAELKQNAVVTIYETSSNGWHRIGVNQWVIGTNIQE	-0.121
HMGTVSSGSSSTDTPFSLGEIVRHKVFGEGVVLSIEGQGDASRIQINFNTAGTKWLVTAYADLEK	-1.28
HMGTVVKRNALVHAWTEFNGGRASTKLLALGPGKVGEWIELENPQSGRKLRGEVQVDGSVRLG	0.296
HMGTWKKIGTMTATVNDLYVRETPNGYIMGFINKGTVVEVDGKTTGKWTHAKVEGIGVGWIWTGYLDK	0.161
HMGTYYTEIIAQLKKEIANGTWKLGERLPGELALAKQFNVSRSSIREALKALAYAGIVESKPGRGTFLLHV	-0.207
